Consider 1 variant from IntAct's records for PubMed 19934257.

B1: NAD-dependent protein deacetylase sirtuin-1 (Homo sapiens), Q96EB6 (parent)
chain: MADEAALALQPGGSPSAAGADREAASSPAGEPLRKRPRRDGPGLERSPGEPGGAAPEREVPAAARGCPGAAAAALWREAEAEAAAAGGEQEAQATAAAGEGDNGPGLQGPSREPPLADNLYDEDDDDEGEEEEEAAAAAIGYRDNLLFGDEIITNGFHSCESDEEDRASHASSSDWTPRPRIGPYTFVQQHLMIGTDPRTILKDLLPETIPPPELDDMTLWQIVINILSEPPKRKKRKDINTIEDAVKLLQECKKIIVLTGAGVSVSCGIPDFRSRDGIYARLAVDFPDLPDPQAMFDIEYFRKDPRPFFKFAKEIYPGQFQPSLCHKFIALSDKEGKLLRNYTQNIDTLEQVAGIQRIIQCHGSFATASCLICKYKVDCEAVRGDIFNQVVPRCPRCPADEPLAIMKPEIVFFGENLPEQFHRAMKYDKDEVDLLIVIGSSLKVRPVALIPSSIPHEVPQILINREPLPHLHFDVELLGDCDVIINELCHRLGGEYAKLCCNPVKLSEITEKPPRTQKELAYLSELPPTPLHVSEDSSSPERTSPPDSSVIVTLLDQAAKSNDDLDVSESKGCMEEKPQEVQTSRNVESIAEQMENPDLKNVGSSTGEKNERTSVAGTVRKCWPNRVAKEQISRRLDGNQYLFLPPNRYIFHGAEVYSDSEDDVLSSSSCGSNSDSGTCQSPSLEEPMEDESEIEEFYNGLEDEPDVPERAGGAGFGTDGDDQEAINEAISVKQEVTDMNYPSNKS

This assay covers variants of B1. As to conditions: with apex1_human APEX1, P27695.
apex1_human APEX1, P27695, sequence (P27695 whole entry): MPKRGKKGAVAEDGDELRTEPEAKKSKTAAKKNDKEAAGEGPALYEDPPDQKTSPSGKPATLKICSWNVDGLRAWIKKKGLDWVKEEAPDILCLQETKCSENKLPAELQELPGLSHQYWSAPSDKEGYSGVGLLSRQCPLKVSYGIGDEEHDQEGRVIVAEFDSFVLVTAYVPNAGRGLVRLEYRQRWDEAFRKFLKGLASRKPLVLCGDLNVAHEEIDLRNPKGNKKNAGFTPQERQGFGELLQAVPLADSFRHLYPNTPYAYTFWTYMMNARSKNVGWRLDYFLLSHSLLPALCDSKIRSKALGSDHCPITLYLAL
In the case of H363Y, the “effect of a mutation on the interaction” value was “disrupting interaction”.
